# According to patent publication US20220283173A1:
# B1: Human myxovirus resistance protein A (MxA), unlabelled standard (protein)
# chain: MVVSEVDIAKADPAAASHPLLLNGDATVAQKNPGSVAENNLCSQYEEKVRPCIDLIDSLRALGVEQDLALPAIAVIGDQSSGKSSVLEALSGVALPRGSGIVTRCPLVLKLKKLVNEDKWRGKVSYQDYEIEISDASEVEKEINKAQNAIAGEGMGISHELITLEISSRDVPDLTLIDLPGITRVAVGNQPADIGYKIKTLIKKYIQRQETISLVVVPSNVDIATTEALSMAQEVDPEGDRTIGILTKPDLVDKGTEDKVVDVVRNLVFHLKKGYMIVKCRGQQEIQDQLSLSEALQREKIFFENHPYFRDLLEEGKATVPCLAEKLTSELITHICKSLPLLENQIKETHQRITEELQKYGVDIPEDENEKMFFLIDKVNAFNQDITALMQGEETVGEEDIRLFTRLRHEFHKWSTIIENNFQEGHKILSRKIQKFENQYRGRELPGFVNYRTFETIVKQQIKALEEPAVDMLHTVTDMVRLAFTDVSIKNFEEFFNLHRTAKSKIEDIRAEQEREGEKLIRLHFQMEQIVYCQDQVYRGALQKVREKELEEEKKKKSWDFGAFQSSSATDSSMEEIFQHLMAYHQEASKRISSHIPLIIQFFMLQTYGQQLQKAMLQLLQDKDTYSWLLKERSDTSDKRKFLKERLARLTQARRRLAQFPG
# Assays:
# Anti-Mx1-AF488 [1] = assay: competitive TR-FRET; unlabelled MxA at 0.098 (unit µ/mL [sic]) displacing Mx1-L4 from Anti-Mx1-AF488
# Anti-Mx1-AF488 [2] = assay: competitive TR-FRET; unlabelled MxA at 1.563 (unit µ/mL [sic]) displacing Mx1-L4 from Anti-Mx1-AF488
# Anti-Mx1-AF488 [3] = assay: competitive TR-FRET; unlabelled MxA at 0.024 (unit µ/mL [sic]) displacing Mx1-L4 from Anti-Mx1-AF488
# Anti-Mx1-AF488 [4] = assay: competitive TR-FRET; unlabelled MxA at 0.391 (unit µ/mL [sic]) displacing Mx1-L4 from Anti-Mx1-AF488
# Anti-Mx1-AF488 [5] = assay: competitive TR-FRET; unlabelled MxA at 0.000 (no competitor, the reference R0) with Mx1-L4 and Anti-Mx1-AF488
# Anti-Mx1-AF488 [6] = assay: competitive TR-FRET; unlabelled MxA at 6.250 (unit µ/mL [sic]) displacing Mx1-L4 from Anti-Mx1-AF488
# Anti-Mx1-AF488 [7] = assay: competitive TR-FRET; unlabelled MxA at 25.000 (unit µ/mL [sic]) displacing Mx1-L4 from Anti-Mx1-AF488
# Anti-Mx1-AF488 [8] = assay: competitive TR-FRET; unlabelled MxA at 0.006 (unit µ/mL [sic]) displacing Mx1-L4 from Anti-Mx1-AF488
binder,measurement,setting,value
B1,R/R0,Anti-Mx1-AF488 [1],0.97
same,R/R0,Anti-Mx1-AF488 [2],0.72
same,R/R0,Anti-Mx1-AF488 [3],0.99
same,R/R0,Anti-Mx1-AF488 [4],0.89
same,R/R0,Anti-Mx1-AF488 [5],1
same,R/R0,Anti-Mx1-AF488 [6],0.43
same,R/R0,Anti-Mx1-AF488 [7],0.32
same,R/R0,Anti-Mx1-AF488 [8],0.94
